Test results reported in patent US20230314433A1 (KURUME UNIVERSITY, published 2023).

Columns and labels:
[1] = biological target: T1, human MDA5 protein (full-length, about 120 kDa) (human, UniProt Q9BYX4 1-1025); assay: Western blot of normal lung and lung cancer tissues, mAb at 1 ug/mL
T1 construct: Endogenous cytoplasmic protein in human tissue sections, tissue lysates and PBMCs (band of about 120 kDa); also called IFIH1
T1 sequence: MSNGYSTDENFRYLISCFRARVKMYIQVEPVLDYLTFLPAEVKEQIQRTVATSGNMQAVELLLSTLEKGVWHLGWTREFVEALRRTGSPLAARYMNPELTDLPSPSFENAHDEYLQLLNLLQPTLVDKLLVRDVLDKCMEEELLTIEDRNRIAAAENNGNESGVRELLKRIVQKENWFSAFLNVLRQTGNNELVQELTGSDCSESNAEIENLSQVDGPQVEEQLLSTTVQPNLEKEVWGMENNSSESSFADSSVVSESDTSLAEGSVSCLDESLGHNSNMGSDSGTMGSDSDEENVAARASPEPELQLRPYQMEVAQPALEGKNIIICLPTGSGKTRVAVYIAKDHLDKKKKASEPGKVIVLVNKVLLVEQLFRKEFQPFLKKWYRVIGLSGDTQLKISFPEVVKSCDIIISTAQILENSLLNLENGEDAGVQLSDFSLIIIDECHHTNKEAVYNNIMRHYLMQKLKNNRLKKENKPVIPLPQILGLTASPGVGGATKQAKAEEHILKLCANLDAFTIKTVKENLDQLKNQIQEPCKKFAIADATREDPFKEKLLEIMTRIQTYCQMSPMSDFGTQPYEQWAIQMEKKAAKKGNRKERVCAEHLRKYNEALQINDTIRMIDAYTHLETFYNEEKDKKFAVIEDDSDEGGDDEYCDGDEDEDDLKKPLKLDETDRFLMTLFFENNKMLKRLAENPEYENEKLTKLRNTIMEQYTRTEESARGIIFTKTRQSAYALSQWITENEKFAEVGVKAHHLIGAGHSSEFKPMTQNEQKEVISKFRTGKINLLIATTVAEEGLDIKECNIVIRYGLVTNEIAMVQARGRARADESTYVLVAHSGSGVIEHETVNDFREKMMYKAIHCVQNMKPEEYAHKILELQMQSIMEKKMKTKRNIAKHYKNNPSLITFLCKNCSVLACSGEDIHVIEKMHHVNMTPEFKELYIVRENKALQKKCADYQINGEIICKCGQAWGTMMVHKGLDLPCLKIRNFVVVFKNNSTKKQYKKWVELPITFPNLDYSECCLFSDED
Experimental: Western blotting analysis was performed by using NuPAGE (registered trademark) 7% Tris-Acetate Midi Gel (Thermo Fisher Scientific, Tokyo, Japan) according to the manufacture’s protocol. Anti-human MDA5 mAb (clone H27 or clone H46, 1 µg/mL) was used for immunoblotting, as previously reported (T. Hoshino, et al., Am J Respir Crit Care Med 176 (2007) 49-62).

[2] = biological target: T2, recombinant human MDA5 protein (human, UniProt Q9BYX4 1-1025); assay: electrochemiluminescence sandwich immunoassay (MSD), H46 coated as primary (capture) mAb
T2 construct: Expressed in SF9 cells with baculovirus; also called pPSC8/human MDA5 product; MDA5 standard; not shown: N-terminal 6X His tag, GST and turbo 3C protease cleavage site
T2 sequence: T1 sequence
Experimental: The human MDA5 sandwich immunoassay system was established using electrochemiluminescence in a MESOSCALE DISCOVERY (registered trademark) assay system (Meso Scale Japan, Tokyo, Japan). Briefly, mouse anti-human MDA5 monoclonal antibody (clone H46) was used as the primary mAb, dissolved at 2 µg/mL in phosphate-buffered saline (PBS), dispensed into plates in aliquots of 25 µL/well, and left undisturbed overnight at 4° C. The plates were then washed three times with 150 µL Quantikine Wash Buffer 1 (R&D Systems, Minneapolis, MN, USA). Block Ace blocking solution (100 µL/well; Nacalai Tesque, Kyoto, Japan) was added and incubated for at least one hour at room temperature to prevent nonspecific adhesion of the secondary antibody to the plates. The plates were then washed thrice. The samples were aliquoted at 25 µL/well. Recombinant human MDA5 protein diluted to 50 ng/mL, 10 ng/mL, 2 ng/mL, 400 pg/mL, 80 pg/mL, 16 pg/mL, and 3.2 pg/mL was used as a standard. After 1 h of incubation at room temperature, each well was washed thrice. Next, 2 µg/mL biotin-labeled mouse anti-human MDA5 secondary mAb (clone H27) was added at 25 µL/well, followed by incubation for 1 h at room temperature after which each well was washed three times. […] The amount of human MDA5 protein was measured using MESO QuickPlex SQ 120 according to the manufacturer’s protocol.

binding result [1]: binds
binding result [2]: binds
B1: mouse anti-human MDA5 monoclonal antibody (H46) (antibody, V domains shown)
VH: EFQLQQSGPELVKPGASVKISCKASGYSFTDYNMNWVKQSNGKSLEWIGVINPDYGSTSYNKKFKGKATLTVDQSSTTAYMQLNSLTSEDSAVYFCARDRYGNYFDYWGQGTTLTVSS
VL: QIVLTQSPAIMSASPGEKVTMTCSASSSLNYMHWYLQKPGTSPKRWIYDTSKLASGVPARFSGSGSGTSYSLTISSMEAEDAATYYCHQRSSYPITFGSGTKLEIK
notes: Mouse IgG2b from a hybridoma; also called clone H46; H46 [mouse IgG2b]
